{"source": "paper PMC10711550", "about": "“Molecular basis for SOX2-dependent regulation of super-enhancer activity” (Nucleic Acids Research, 2023)", "binders": {"B1": {"name": "p300 KIX-BD fragment (aa 566-1139) (domain or fragment)", "chain": "not shown", "notes": "human p300, KIX + bromodomain, residues 566-1139; also called p300KB; KB; source: E. coli BL21(DE3), purified from the supernatant (HisTrap HP, Superose 6 Increase)"}, "B2": {"name": "p300 bromodomain (aa 1067-1139) (domain or fragment, human, UniProt Q09472 1067-1139, looked up)", "chain": "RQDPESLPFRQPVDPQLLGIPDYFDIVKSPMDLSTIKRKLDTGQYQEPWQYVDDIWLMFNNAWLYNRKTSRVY", "notes": "human p300, bromodomain, residues 1067-1139; also called p300BD; BD; source: E. coli BL21(DE3), purified from the supernatant (HisTrap HP, Superose 6 Increase)"}, "B3": {"name": "p300 bromodomain (aa 1067-1139) (domain or fragment, human, UniProt Q09472 1067-1139, looked up)", "chain": "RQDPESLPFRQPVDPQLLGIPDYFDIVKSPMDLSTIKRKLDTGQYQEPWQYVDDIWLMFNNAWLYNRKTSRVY", "notes": "human p300, UniProt Q09472, bromodomain, aa 1067-1139; also called BD; p300BD; source: E. coli BL21(DE3), purified from the supernatant (HisTrap HP, Superose 6 Increase)"}, "B4": {"name": "p300 KIX domain (aa 566-646) (domain or fragment)", "chain": "not shown", "notes": "human p300, UniProt Q09472, KIX domain, aa 566-646; also called KIXp300; source: E. coli BL21(DE3), purified from the supernatant (HisTrap HP, Superose 6 Increase)"}}, "conditions_in_all_cases": "both partners purified", "key": {"[1]": {"biological_target": "T1, full-length human SOX2 (recombinant, N-terminal His-tag, 327 amino acids) (human, UniProt P48431 1-317)", "T1 construct": "human SOX2, full length, 317 amino acids; with the tag peptide 327 amino acids; Immobilised on an AR2G chip in BLI", "T1 sequence (P48431 whole entry, the tested form may be a part)": "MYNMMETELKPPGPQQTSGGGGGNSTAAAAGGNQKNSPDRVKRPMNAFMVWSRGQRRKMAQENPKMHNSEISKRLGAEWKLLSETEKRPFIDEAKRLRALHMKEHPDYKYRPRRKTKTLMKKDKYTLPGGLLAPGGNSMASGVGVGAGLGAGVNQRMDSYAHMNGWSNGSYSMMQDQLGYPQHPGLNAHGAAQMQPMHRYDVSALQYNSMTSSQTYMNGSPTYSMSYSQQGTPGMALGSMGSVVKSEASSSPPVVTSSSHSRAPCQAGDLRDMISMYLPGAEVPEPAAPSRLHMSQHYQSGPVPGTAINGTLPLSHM", "assay": "BLI; 0.2 mg/ml SOX2 immobilised on an AR2G chip, quenched with 1 M ethanolamine; p300 (0-400 nM), KIX (0-43 uM), fragments (3 uM KIX and BR, 0.8 uM KB) in PBS; global fit, 1:1 binding model; BLItz"}, "[2]": {"biological_target": "T2, DNA-binding domain of SOX2 (aa 39-127) (human, UniProt P48431 39-127)", "T2 construct": "also called SOX2DBD; DBDSOX2; source: E. coli BL21(DE3), purified from the supernatant (HisTrap HP, Superose 6 Increase)", "T2 sequence (P48431 39-127)": "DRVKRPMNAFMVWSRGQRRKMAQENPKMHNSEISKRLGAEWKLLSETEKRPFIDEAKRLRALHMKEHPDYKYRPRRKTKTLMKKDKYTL", "assay": "BLI; SOX2DBD or SOX2CTD with KIX or bromodomain; who was immobilised not given; global fit to a 1:1 binding model (BLItz Pro v.1.2.1.5)"}, "[3]": {"biological_target": "T3, C-terminal domain of SOX2 (aa 150-317) (human, UniProt P48431 150-317)", "T3 construct": "also called SOX2CTD; CTDSOX2; source: E. coli BL21(DE3), purified from the supernatant (HisTrap HP, Superose 6 Increase)", "T3 sequence (P48431 150-317)": "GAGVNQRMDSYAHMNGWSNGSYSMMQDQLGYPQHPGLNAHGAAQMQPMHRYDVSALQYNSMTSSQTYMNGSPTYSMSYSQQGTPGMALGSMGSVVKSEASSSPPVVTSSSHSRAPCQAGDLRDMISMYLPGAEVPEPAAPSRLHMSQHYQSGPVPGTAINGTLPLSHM", "assay": "BLI; SOX2DBD or SOX2CTD with KIX or bromodomain; who was immobilised not given; global fit to a 1:1 binding model (BLItz Pro v.1.2.1.5)"}, "full-length human SOX2": {"biological_target": "T4, full-length human SOX2 (human, UniProt P48431 1-317)", "T4 construct": "human SOX2, UniProt P48431, 317 amino acids; with the N-terminal His-tag peptide the recombinant protein has 327 amino acids; cloned into the pVFT1S plasmid", "T4 sequence (P48431 whole entry, the tested form may be a part)": "as the sequence (P48431 whole entry, the tested form may be a part) above", "assay": "BLI; SOX2 (0.2 mg/ml) immobilised on an AR2G chip, quenched with 1 M ethanolamine; p300 fragments in PBS; global fit to a 1:1 binding model (BLItz Pro v.1.2.1.5)"}}}
{"binder": "B1", "values": [{"measurement": "fold lower KD than p300BD", "setting": "[1]", "result": 834, "unit": "fold"}, {"measurement": "fold lower KD than p300KIX", "setting": "[1]", "result": 41.4, "unit": "fold"}]}
{"binder": "B2", "values": [{"measurement": "fold higher KD than p300KIX", "setting": "[1]", "result": 20.1, "unit": "fold"}]}
{"binder": "B3", "values": [{"measurement": "koff", "setting": "[2]", "result": 0.0265, "unit": "s⁻¹"}, {"measurement": "kon", "setting": "[2]", "result": 172, "unit": "M⁻¹ s⁻¹"}, {"measurement": "koff", "setting": "[3]", "result": 0.0951, "unit": "s⁻¹"}, {"measurement": "Kd", "setting": "full-length human SOX2", "result": 54, "unit": "µM"}, {"measurement": "koff", "setting": "full-length human SOX2", "result": 0.00606, "unit": "s⁻¹"}, {"measurement": "kon", "setting": "full-length human SOX2", "result": 112, "unit": "M⁻¹ s⁻¹"}]}
{"binder": "B4", "values": [{"measurement": "koff", "setting": "[2]", "result": 0.0469, "unit": "s⁻¹"}, {"measurement": "kon", "setting": "[2]", "result": 5060, "unit": "M⁻¹ s⁻¹"}, {"measurement": "koff", "setting": "[3]", "result": 0.0849, "unit": "s⁻¹"}, {"measurement": "kon", "setting": "[3]", "result": 1720, "unit": "M⁻¹ s⁻¹"}]}
